From paper PMC4211656

Tested on: CYT-19
Test: ensemble unwinding (CYT-19 concentration dependence)
Details: kmax 0.86 min-1; functional K1/2 for unwinding; substrate probably -1d,rSA5 = CCCUCdUAAAAA (2'-deoxy at U -1); Ribozyme buffer for complex assembly: 50 mM MOPS pH 7.0, 10 mM MgCl2, 25 C; exact CYT-19/Ded1 assay buffer not in the material

L-16/ScaI group I ribozyme with standard 11-bp P1 (ensemble)
K half: 5.7 µM
